Laboratory results: patent publication US20150344570A1 (published 2015)

T1: FcγRIIb extracellular domain with C-terminal His tag (human, UniProt P31994 43-217)
T1 construct: extracellular domain; also called FcgRIIb; 2b
T1 sequence (looked up): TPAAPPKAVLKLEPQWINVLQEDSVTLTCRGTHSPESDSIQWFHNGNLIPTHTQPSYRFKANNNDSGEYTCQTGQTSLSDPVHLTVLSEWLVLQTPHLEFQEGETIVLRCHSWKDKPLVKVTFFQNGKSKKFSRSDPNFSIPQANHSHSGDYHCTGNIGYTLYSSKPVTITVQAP


Biological target: T1, FcγRIIb extracellular domain with …
Assay: SPR (Biacore), relative binding
Experimental: Analysis of interaction between objective antibody and the FcγR was carried out using Biacore T100 (GE Healthcare). HBS-EP+ (GE Healthcare) was used as the running buffer, and the measurement temperature was set to 25° C. Chips produced by immobilizing the antigen peptide by the amine coupling method to a Series S Sencor Chip CM5 (GE Healthcare), or alternatively, chips produced by allowing preliminarily biotinylated antigen peptides to interact with and immobilize onto a Series S Sensor Chip SA (certified) (GE Healthcare) were used. Antibodies of interest were captured onto an antigen peptide-immobilized chip, and allowed to interact to each FcγR diluted with running buffer. To regenerate and repeatedly use the chip, the antibodies captured on the chip were washed off by reacting 10 mM glycine-HCl, pH 1.5.

Row | Binder | Ho/Con_2b
1 | GpH7-B3 variant P238_19Q/GpL16-k0 (antibody, human IgG1, kappa, also called Ho Ab P238_19Q) heavy: not shown light: DIVMTQSPLSLPVTPGEPASISCQASESLVHSNRNTYLHWYLQKPGQSPQLLIYKVSNRFSGVPDRFSGSGSGTDFTLKISRVEAEDVGVYYCSQNTHVPPTFGQGTKVEIERTVAAPSVFIFPPSDEQLKSGTASVVCLLNNFYPREAKVQWKVDNALQSGNSQESVTEQDSKDSTYSLSSTLTLSKADYEKHKVYACEVTHQGLSSPVTKSFNRGEC | 42.7 % of HoCon Ab GpH7-B3/GpL16-k0
2 | GpH7-B3 variant P271_10E/GpL16-k0 (antibody, human IgG1, kappa, also called Ho Ab P271_10E) heavy: not shown light: DIVMTQSPLSLPVTPGEPASISCQASESLVHSNRNTYLHWYLQKPGQSPQLLIYKVSNRFSGVPDRFSGSGSGTDFTLKISRVEAEDVGVYYCSQNTHVPPTFGQGTKVEIERTVAAPSVFIFPPSDEQLKSGTASVVCLLNNFYPREAKVQWKVDNALQSGNSQESVTEQDSKDSTYSLSSTLTLSKADYEKHKVYACEVTHQGLSSPVTKSFNRGEC | 95 % of HoCon Ab GpH7-B3/GpL16-k0
3 | GpH7-B3 variant P331_16H/GpL16-k0 (antibody, human IgG1, kappa, also called Ho Ab P331_16H) heavy: not shown light: DIVMTQSPLSLPVTPGEPASISCQASESLVHSNRNTYLHWYLQKPGQSPQLLIYKVSNRFSGVPDRFSGSGSGTDFTLKISRVEAEDVGVYYCSQNTHVPPTFGQGTKVEIERTVAAPSVFIFPPSDEQLKSGTASVVCLLNNFYPREAKVQWKVDNALQSGNSQESVTEQDSKDSTYSLSSTLTLSKADYEKHKVYACEVTHQGLSSPVTKSFNRGEC | 100 % of HoCon Ab GpH7-B3/GpL16-k0
4 | GpH7-B3 variant S267_06M/GpL16-k0 (antibody, human IgG1, kappa, also called Ho Ab S267_06M) heavy: not shown light: DIVMTQSPLSLPVTPGEPASISCQASESLVHSNRNTYLHWYLQKPGQSPQLLIYKVSNRFSGVPDRFSGSGSGTDFTLKISRVEAEDVGVYYCSQNTHVPPTFGQGTKVEIERTVAAPSVFIFPPSDEQLKSGTASVVCLLNNFYPREAKVQWKVDNALQSGNSQESVTEQDSKDSTYSLSSTLTLSKADYEKHKVYACEVTHQGLSSPVTKSFNRGEC | 187 % of HoCon Ab GpH7-B3/GpL16-k0
5 | GpH7-B3 variant P331_20W/GpL16-k0 (antibody, human IgG1, kappa, also called Ho Ab P331_20W) heavy: not shown light: DIVMTQSPLSLPVTPGEPASISCQASESLVHSNRNTYLHWYLQKPGQSPQLLIYKVSNRFSGVPDRFSGSGSGTDFTLKISRVEAEDVGVYYCSQNTHVPPTFGQGTKVEIERTVAAPSVFIFPPSDEQLKSGTASVVCLLNNFYPREAKVQWKVDNALQSGNSQESVTEQDSKDSTYSLSSTLTLSKADYEKHKVYACEVTHQGLSSPVTKSFNRGEC | 111 % of HoCon Ab GpH7-B3/GpL16-k0
6 | GpH7-B3 variant S267_19Q/GpL16-k0 (antibody, human IgG1, kappa, also called Ho Ab S267_19Q) heavy: not shown light: DIVMTQSPLSLPVTPGEPASISCQASESLVHSNRNTYLHWYLQKPGQSPQLLIYKVSNRFSGVPDRFSGSGSGTDFTLKISRVEAEDVGVYYCSQNTHVPPTFGQGTKVEIERTVAAPSVFIFPPSDEQLKSGTASVVCLLNNFYPREAKVQWKVDNALQSGNSQESVTEQDSKDSTYSLSSTLTLSKADYEKHKVYACEVTHQGLSSPVTKSFNRGEC | 185 % of HoCon Ab GpH7-B3/GpL16-k0
7 | GpH7-B3 variant P331_03V/GpL16-k0 (antibody, human IgG1, kappa, also called Ho Ab P331_03V) heavy: not shown light: DIVMTQSPLSLPVTPGEPASISCQASESLVHSNRNTYLHWYLQKPGQSPQLLIYKVSNRFSGVPDRFSGSGSGTDFTLKISRVEAEDVGVYYCSQNTHVPPTFGQGTKVEIERTVAAPSVFIFPPSDEQLKSGTASVVCLLNNFYPREAKVQWKVDNALQSGNSQESVTEQDSKDSTYSLSSTLTLSKADYEKHKVYACEVTHQGLSSPVTKSFNRGEC | 86.6 % of HoCon Ab GpH7-B3/GpL16-k0
8 | GpH7-B3 variant S324_06M/GpL16-k0 (antibody, human IgG1, kappa, also called Ho Ab S324_06M) heavy: not shown light: DIVMTQSPLSLPVTPGEPASISCQASESLVHSNRNTYLHWYLQKPGQSPQLLIYKVSNRFSGVPDRFSGSGSGTDFTLKISRVEAEDVGVYYCSQNTHVPPTFGQGTKVEIERTVAAPSVFIFPPSDEQLKSGTASVVCLLNNFYPREAKVQWKVDNALQSGNSQESVTEQDSKDSTYSLSSTLTLSKADYEKHKVYACEVTHQGLSSPVTKSFNRGEC | 104 % of HoCon Ab GpH7-B3/GpL16-k0
9 | GpH7-B3 variant S239_06M/GpL16-k0 (antibody, human IgG1, kappa, also called Ho Ab S239_06M) heavy: not shown light: DIVMTQSPLSLPVTPGEPASISCQASESLVHSNRNTYLHWYLQKPGQSPQLLIYKVSNRFSGVPDRFSGSGSGTDFTLKISRVEAEDVGVYYCSQNTHVPPTFGQGTKVEIERTVAAPSVFIFPPSDEQLKSGTASVVCLLNNFYPREAKVQWKVDNALQSGNSQESVTEQDSKDSTYSLSSTLTLSKADYEKHKVYACEVTHQGLSSPVTKSFNRGEC | 84.3 % of HoCon Ab GpH7-B3/GpL16-k0
10 | GpH7-B3 variant P238_20W/GpL16-k0 (antibody, human IgG1, kappa, also called Ho Ab P238_20W) heavy: not shown light: DIVMTQSPLSLPVTPGEPASISCQASESLVHSNRNTYLHWYLQKPGQSPQLLIYKVSNRFSGVPDRFSGSGSGTDFTLKISRVEAEDVGVYYCSQNTHVPPTFGQGTKVEIERTVAAPSVFIFPPSDEQLKSGTASVVCLLNNFYPREAKVQWKVDNALQSGNSQESVTEQDSKDSTYSLSSTLTLSKADYEKHKVYACEVTHQGLSSPVTKSFNRGEC | 12.6 % of HoCon Ab GpH7-B3/GpL16-k0
